Reference: the nanobody polyreactivity screen of Harvey et al. (2022)

Assay: yeast display, Sf9 membrane polyspecificity reagent, FACS + sequencing; frameworks hold sequencing errors
Method in brief: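 Galactose induction of a Saccharomyces cerevisiae BJ5465 synthetic nanobody display library ran 36–48 hours. The cells were then stained for 1 hour at 4 °C with 10% biotinylated, detergent-solubilized Sf9 membrane reagent, pulled down on streptavidin microbeads and FACS-sorted into low and high (top ~1%) gates on expression and reagent-binding fluorescence. Labels for polyreactivity follow the gate of origin.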

Sequence	polyreactivity (PSR sort gate)
QLQLVESGGGLVQAGGSLRLTCAASGSTFTKYDMGWYRQAPGKERELVAAIRSGGDTNYADSVKGRFTISRDNAKYTVYLQMNSLKPEDTAVYYCNTLRNWYYQFDFNYWGQGTQVTVSS	low polyreactivity
QVHLVESGGGLVQAGGSLRLSCASTGRISTYYTMVWYRQAPGKERELVAAISWSGTSTYYADSVKGRFTISRDNAKNTVYLQMNSLKPEDTAVYYCNAYFRPRYGYWGQGTQVTVSS	high polyreactivity
QVQLVESGGGLVQAGGSLRLSCAASGIISGDYAMAWYRQAHGKERELVARITSGDSTNYADSVKGRFTISRDNAKNTVYLQMNSLKPEDTAVYYCAADRVWAYWTYGYWGQGTQVTVSS	low polyreactivity
QVQLVESGGGLVQAGGSLRISCAASGRIFSYNAMGWYRQAPGKERELVASISRGGSTYADSVKGRFTISRDNAKNTVYLQMNRLQPADTAVYYCNAVHFSYEYDYWGQGTQVTVSS	high polyreactivity
QVQLVESGGGLVQAGGSLRLSCAASGSISGLYAMGWYRQATGKERELVAAITFRDGTTSYADSVKGRFTISRDNAKNTVYLQMNSLKPEDTAVYYCAAVDRDSNSSVPTLDHWGQGTQVTVSS	low polyreactivity
QVQLVESGGGLVQAGGSLRLSCAASGRTFRPYAMGWYRQAPGKERELVAVISYRGGSTYYADSVKGRFTISRDNAKNTVYLQMNSLKPEDTAVYYCNAQAGWFSRLYYWGQGTQVTVSS	high polyreactivity
QVQLVESGRGLVQAGGSLRLSCAASGSIFQKYTMGWYRQAPGKERELVAGINTSGANTYYADSVKGRFTISRDNAKNTVYLQMNSLKPEDTAVYYCAAARPWFAYYYWGQGTQVTVSS	high polyreactivity
QVQLVESGGGLVQAGGSLRLSCAASGRIFGYNAMGWYRQAPGKERELVAVITYSGGSTYYADSVKGRFTISRDNAKNTVYLQMNSMIPEDTAVYYCAADYQPYSYFWQGGTRDMDYWGQGTQVTVSS	low polyreactivity
QVQLVESGGGLVQAGGSLRLSCAASGRTFYRYAMGWYRQAPGKERLVAAITWNGGSTYYADSVKGRFTISRDNAKNTVYLQMNSLNPEDTAVYYCAATFGGVSWRRPHRFDYWGQGTQVTVSS	high polyreactivity
QVQLVESVGGLVQAGGSLRLSCAASGSTIRYYAIAWYRQAPGKERELVAAITSSGGRTYYADSVKGRFTISRDYAKNTVYLQMNSLKPEDTAVYYCAAYAYYHTGDDYWGQGTQVTVSS	high polyreactivity
QVQLVESGGGLVQAGGSLRLSCAASGSIFRGYAMGWYRQAPGKERELVAAITKRGGNTYYADSVKGRFTISRDNAKNTVYLQMNSLKPDDTAVYYCAKAGWGKWVYAQMDYWGQGTQVTVSS	high polyreactivity
QVQLVESGGGLVQAGGSLRLSCAASGSTFGYYTMGWYRQAPGKERELVAAITWSGGSTYYADSVKGRFTISRDNAKNSVYLQINSLKPEDSSVYYCAADDYWTPFGYWGQGTQVTVSS	low polyreactivity
QVQLVVSGGGLVQAGGSLRLSCAASGSIFRFYTMGWYRQAPGKERELVAAISASGGNTYYADSVKGRFTISRDNAKNTVYLQMNSLKPEDTAVYYCARVKFTKYDYWGQGTQVTVSS	high polyreactivity
QVQLVESGGGLVQAGGSLRLSCAASGRIFYYNAMGSYRQAPGKESELVAAIRRSGSRTYYADSVKGRFTISRDNSKNTVSLEMNSLKPEDTAVYYCAAKYASFAHHDSWGQGTQVTVSS	high polyreactivity
QVQLVESVGGLVQAGGSLRLSCAASGFNFSAYAMGGYRQAPGKESELVAAISWSGSRTYYADSVKGRFTISRDNAKNTVYLQMNSLKPEDTAVFYCAKEPYDTFGFYEYDYWGQGTQVTVSS	low polyreactivity
QVQLVESGGGLVQAGGSLRLSCAASGRIFTPYAMGWYRQAPGKERELVAVIRDGSTYYADSVKGRFTISRDNAKNTVYLQMNSLKPEDPAVSYCSYDIWVWWSGAYDYWGQGNQVTVSS	low polyreactivity
QVQLVESGGGLVQAGGSLRLSCAASGRIFGSYAMGWYRQAPGKERELVATIRRSGGRTYYADSVKGRFTISRDNAKNTVYLQKTSLKPADTAVYYCAKDEWGNIRHERDYWGQGTQVTVSS	low polyreactivity
QVQLVESGGGLVQAGGSLRLSCAASGSNFYPYAMGWYRQAPGKEREFVAAITRSGGSTSYADSVKGRFTISRDNAKNTVYLQMNSLKPVDTAVDYCAAGYWYPDYDGFDYWGQGTQVTGSS	low polyreactivity
QVQLVESGGGLVQAGGSLRLSCAASGSIFYVNAMGWNRQPPGKERELVAGITSGGRTNYADSVKGRFTISRDNAKNSVYLQMNSLKPEDTAVYYCATEIRITGLYRYDYWGQGTQVTVSS	low polyreactivity
QVQLVESGGGLVQAGGSLRLSCAASGGTFYGYAMGWYRQAPGKERELVAAINYRGGRTYYADSVKGRFTISRDNAKNTVYLQMNSLKPEDTAVYDCAATSDRLDGYDYWGQGTQVTVSS	high polyreactivity
QVQLVESVGGLVQAGGSLRLSCAASGSIFYNNAMGWYRQAPGKDRELVAAIRSTGTRTYYADSVKGRFTISRDHAKNTVYLQMNSLKAEDTAVYYCAVGDYGLWSYDYWGQGTQLTVSS	low polyreactivity
QVQLVESGGGLVQAGGSLRLSCAASGSTFWYYAMGWYRPAPGKERELVAAITISGGSTYYADSVKGRFTISRDNAKNTVYLQMNSLKPEDTAVYYCATDDTHRVGWFDYWGQGTQVTVSS	low polyreactivity

Sequence	polyreactivity (PSR sort gate)
QVQLVESGGGLVQAGGSLRLSCAASGFIFDLYAMGWYRQAPGKERELVAAITTSGGTTYYADSVKGRFTISRDNAKNTVYLQMNSLKPEDTAVYYCAARRYSWYYYWGQGTQVTVSS	high polyreactivity
QVQLVESGGGLVQAGGSLRLSCAASGRTLDKYTLGWYRQAPGKERELVASITSGGSTNYADSVKGRFTISRDNAKNTVYLQMNTLKPEDTAVYYCNKRRRVSKMGQGYDYWGQGTQVTVTS	low polyreactivity
QVQLVESGGGLVQAGGSLRLSCAASGRIFRPYAMGWYRQAPGKERELVASMSWRGSSTYYADSVKGRFTISRDNAQNTVYLQMNSLKPEDTAVYYCAARRYPTSGYGYWGQGTQVTVSS	high polyreactivity
QVQLVESGGGLVQAGGSLRLSCAASGRIFGPNAMGWYRQAPGKERELVASISYSGGSTYYADSVKGRFTISRDNAKNTVYLQMNSLKPEDTAVYYCAKGGYWRGYNYWGQGTQVTVSS	low polyreactivity
QVQLVESGGGLVQAGRSLRVRCAASGSTFGLYAKGWYRQAPGKERELVADITWSGGTTYYADSVMGRFTFSRDNAKNTVYLEINSLKPEDTAVYYCAARYPWVYDDFDYWGQGTQVNVSS	low polyreactivity
QVQLVESGGGLVQAGGSLRLSCAASGSIFFPYTMGWYRQAPGKERELVARISLGGGRTYYADSVKGRFTISRDNAKNTVYLQMNSLKPEDTAVYYCNRGGWYAYYWGQGTQVTVSS	high polyreactivity
QVQLVESGGGLVQAGGSLRLSCAASGSIFQYNAMGWYRQAPGTERELVAAITWTGTSTYADSVKGRFTISRDNAKNTVYLQMNSLKPEDTAVYYCAARYYAPRWFRYDYWGQGTQVTVSS	low polyreactivity
QVQLVESGGGLVQAGGSLRLSCAASGFIFTTYGMGWYRQAPGKERELVAAISYRGDSTYYADSVKGRFTISRDNAKNTVYLQMNSLKPEDTAVYYCAADVTQKPYGLSHGQDAYDYWGQGTQVTVSS	low polyreactivity
QVQLVESGGGLVQAGGSLRLSCAASGFTYSLYDMGWYRQAPGKERELVAAISSDGSTNYADSVKGRFTISRDNAKNTVYLQMNSLKPEDTAVYYCAADETFLSYWLNYWGQGTQVTVSS	low polyreactivity
QVQLVESGGGLVQAGGSLRLSCASSGSIFYVYAMGWYRQAPGKERELVATIDWSGGSTYYADSVKGRFTISRDNAKNTVYLQMNSLKPEDTAVYYCAAYGLYGYRRRYRVSFTPYDYWGQGTQVNVSS	low polyreactivity
QVQVVESGGGIVQAGGSHRLSCAAYGSIFLPYAMGWYRQAPGKDRELVAAITRGGDSTYADSVKGRFTISRDNAMYTVDLQMNSLKRDDTAVFYCAAGAGFESDYWGQGTQVTVAS	low polyreactivity
QVQLGESGGSLVQAGASLRLSCAASAITFYGNAMGWYRQAPGKERELVAAIRRGGSTNYADSVKGRFTISRDNAKKTVYLQMNSLKPEDTAVYYCAADSYGYTFRNYRVGYWGHGTQVTVSS	high polyreactivity
QVQLVESGGGLVQAGGSLRLSCAASGLTFLWYAMGWYRQAPGKERELVAAITSGGRTKYADSVKGRFTISRDNAKNTVYLQMNSLKPEDTAVYYCAKRGGGTTYSRKHDYWGQGTQVTVSS	high polyreactivity
QVQLVESGGGLVQAGGSLRLSCAASGRTFGAYAMGWYRQAPGKERELVATITVSGGSTYYADSVKGRFTISRDNAMNTVSLQLNSLKPEDTAVYYCATEFYEEYWGQGTQVTVSS	low polyreactivity
QVQLVESGGGLDQAGGSLRLSCAASVFIFAYYAMGWYRQAPGKERELVAAITRHGGSTYDADSVKGRFTISRDNAQNTVYLQMNSLKPEETAVYYCNAYFGWSASRQSYDYWGQGTQVTVSS	high polyreactivity
QVQLVESGGGLVQAGGSLRLSCAASGITFVLNARGWYRQAPGKERELVARISWSTGSTYYADSVKGRFTISRDNAKNTVYLQMNSLKPEDTAVYYCAVDYNYQSLYVVVEGEYWGQGTQVTVSS	low polyreactivity
QVQLVESGGGLVQAGGSLRLSCAASGFIFKRNAMGWYRQATGNERELVAAITKSGVNTYYADSVKGRFTISRDNAKNTVYLQMTSLKPEDTAVYYCAKTLTYGFRRYDYWGQGTQVTVSS	high polyreactivity
QVQLVESGGGLVQAGGSLRLSCAASGRTFRVNTMGWYRQAPGQEWELVAAITSSDRTYYADSVKGRFTISRDNAKNTVYLQMNSLKPDDTAVYYCAAYSEYYGVYYWGQGTQVTVSS	low polyreactivity
QVQLVESGGGLVQAGGSLRLSCAASGRIFRWNVTGWYRQAPGKETELDASITSGSSTNYADSVKGRFTISRDNAKYTVFLQMNSLKPEDTAVYYSAAYGVQTYRRYSYPRGFDYWGQGTQVTVSS	high polyreactivity
QVQLVESGGGLVQAGGSLRLSCAASGSIIYTNAMGRYRQAPGKEREVVAAITGTTTTNYADSVKGRFTISRDNAKNTVYVQMNSLKPEDTAVYYCNADYDRSRVYYSVELYDYWGQGTQVTVSS	low polyreactivity
QVQLVESGGGLVQAGGSLRFSCAASGFNFDQNAMGWYRQAPGQERELVAAITRRGGRTYYADSVKGRFTISRDNAKYTVYLQMNSLKPEDTAVYYCAALLPVHHRGYYWGQGTQVTVSS	high polyreactivity
